Source: patent publication US20030119038A1, “NARC1, novel subtilase-like homologs” (priority 1999, published 2003)
Numbering of substitutions follows the chain as printed. Names and notes keep the numbering of the source. “Also recorded” adds a separate entry of the source. Like-named read-outs stand apart in the source and are kept apart here.

B1: wild-type NARC1: rat NARC1 subtilase-like protein, residues 56-746 of SEQ ID NO:3, expressed as C-terminal EGFP or myc/His fusion (protein)
chain: MGIRCSTWLRWPLSPQLLLLLLLCPTGSRAQDEDGDYEELMLALPSQEDSLVDEASHVATATFRRCSKEAWRLPGTYVVVLMEETQRLQVEQTAHRLQTWAARRGYVIKVLHVFYDLFPGFLVKMSSDLLGLALKLPHVEYIEEDSLVFAQSIPWNLERIIPAWQQTEEDSSPDGSSQVEVYLLDTSIQSGHREIEGRVTITDFNSVPEEDGTRFHRQASKCDSHGTHLAGVVSGRDAGVAKGTSLHSLRVLNCQGKGTVSGTLIGLEFIRKSQLIQPSGPLVVLLPLAGGYSRILNTACQRLARTGVVLVAAAGNFRDDACLYSPASAPEVITVGATNAQDQPVTLGTLGTNFGRCVDLFAPGKDIIGASSDCSTCYMSQSGTSQAAAHVAGIVAMMLNRDPALTLAELRQRLILFSTKDVINMAWFPEDQRVLTPNRVATLPPSTQETGGQLLCRTVWSAHSGPTRTATATARCAPEEELLSCSSFSRSGRRRGDRIEAIGGQQVCKALNAFGGEGVYAVARCCLLPRVNCSIHNTPAARAGPQTPVHCHQKDHVLTGCSFHWEVENLRAQQQPLLRSRHQPGQCVGHQEASVHASCCHAPGLECKIKEHGIAGPAEQVTVACEAGWTLTGCNVLPGASLPLGAYSVDNVCVARIRDAGRADRTSEEATVAAAICCRSRPSAKASWVHQ
modifications: C-terminal EGFP or myc/His tag; rattus norvegicus
B2: H225W, S385A: Full-length NARC1 double mutant; active site histidine and serine mutated (protein)
chain: B1 chain with H225W, S385A
modifications: mutant of rat sequence mutating amino acid His225Trp and Ser385Ala of SEQ ID NO9
B3: S385A: Full-length NARC1 point mutant; mutation of the active site serine (protein)
chain: B1 chain with S385A
modifications: mutant of rat sequence mutating amino acid Ser385Ala of SEQ ID NO9

Experiments:
NARC1 transfectants = test system: NARC1 transfectants
Procedure: Following transient expression of this construct in CGNs, the percentage of GFP positive and GFP negative cells undergoing apoptosis was determined by Laser-Scanning Cytometry.
Following transient expression of the wild-type and point-mutant NARC1 constructs in CGNs, the percentage of GFP-positive cells undergoing apoptosis was determined by Laser-Scanning Cytometry.
(§1) The serine protease inhibitors Aminoethyl-benzene sulfonyl fluoride, an irreversible inhibitor (AEBSF), Aprotinin, a reversible inhibitor, and N-Tosyl-lysine-chloromethylketone (TLCK, an inhibitor known to covalently bind to serine proteases) were investigated to see if any of these reagents can rescue the cell death effects of wild-type NARC1. Caspase 9 transfection was included to test for specificity of any rescue effects.
CGNs were transfected with each of the C-terminal truncation mutants described above. Following transient expression of these constructs, the percentage of GFP positive cells undergoing apoptosis was determined by Laser-Scanning Cytometry.

Caspase 9 transfection = conditions: 24-hour exposure
Text: as §1

furin [1] = conditions: Bathurst (1987); cited from earlier work
furin [2] = molecular target: furin (Homo sapiens, UniProt P09958); conditions: cited from earlier work
furin (Homo sapiens, UniProt P09958), sequence (P09958 108-794, species assumed): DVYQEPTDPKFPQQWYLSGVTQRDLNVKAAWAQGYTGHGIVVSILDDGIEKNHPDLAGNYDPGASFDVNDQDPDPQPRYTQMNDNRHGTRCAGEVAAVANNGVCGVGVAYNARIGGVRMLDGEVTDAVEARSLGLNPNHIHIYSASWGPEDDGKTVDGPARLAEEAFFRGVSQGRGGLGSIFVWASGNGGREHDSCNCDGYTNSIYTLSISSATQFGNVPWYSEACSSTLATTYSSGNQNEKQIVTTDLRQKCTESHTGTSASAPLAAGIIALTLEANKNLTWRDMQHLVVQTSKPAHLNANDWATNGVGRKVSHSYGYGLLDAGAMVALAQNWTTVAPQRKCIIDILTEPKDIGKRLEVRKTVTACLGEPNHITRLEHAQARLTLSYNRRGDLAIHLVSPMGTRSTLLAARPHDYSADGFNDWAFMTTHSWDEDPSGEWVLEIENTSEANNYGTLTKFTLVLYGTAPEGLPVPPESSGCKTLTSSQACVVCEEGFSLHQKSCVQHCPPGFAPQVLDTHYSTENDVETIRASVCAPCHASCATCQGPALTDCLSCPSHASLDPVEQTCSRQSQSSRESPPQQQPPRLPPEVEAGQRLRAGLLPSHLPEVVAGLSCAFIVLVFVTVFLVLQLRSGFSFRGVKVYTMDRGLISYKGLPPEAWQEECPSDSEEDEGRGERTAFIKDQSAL

NARC1 [3] = molecular target: T1, NARC1 (Rattus norvegicus, UniProt P59996); assay: Autoprocessing of NARC1 expressed in E. coli
T1 construct: made in house; host or cells: E. coli
Procedure: The N-terminus of the processed protein was determined by protein microsequencing.

NARC1 [4] = assay: Autoprocessing of NARC1 transiently expressed in COS-7 cells, Western blotting; assay type: cell-based, rat; conditions: for Autoprocessing Activity: C-terminal myc/His fusion transiently expressed in COS-7 cells, 60 kD processing product on Western blot
Procedure: The wild-type NARC1-myc/His clone was transiently expressed in COS-7 cells. The cells were then harvested, lysed, and the protein extracted. Polyacrylamide gel electrophoresis was then carried out on the protein extracts, followed by Western blotting. The resulting membranes were probed using both anti-myc- and NARC1-specific antibodies. Routine techniques and protocols were followed. See, e.g., Ausubel et al.(1998), supra.
This cleavage event maps to approximately the junction between the pro-domain and the enzymatic domain.
Autoprocessing of NARC1 was investigated as follows. COS-7 cells were co-transfected with the following EGFP and myc plasmids: (A) wild-type NARC1-myc and wild-type NARC1-EGFP; (B) S385A NARC1-myc and S385A NARC1-EGFP; and (C) wild-type NARC1-myc and S385A NARC1-myc. The cells were then harvested, lysed, and the protein extracted. Polyacrylamide gel electrophoresis was then carried out on the protein extracts, followed by Western blotting. The resulting membranes were sequentially probed using first the anti-myc and then the anti-EGFP monoclonal antibodies (Abs). Thus, the experiment allowed sequential detection of the separate NARC1 products encoded from the two co-transfected plasmids.
As indicated above, a series of C-terminal truncation mutants were generated. The truncation NARC1-myc/His clones were transiently expressed in COS-7 cells. The cells were then harvested, lysed, the protein extracted, and polyacrylamide gel electrophoresis carried out on the protein extracts. Western analysis was then carried out using both anti-myc and NARC1-specific antibodies.

Ntera2 cells = assay: NARC1-EGFP transfection of Ntera2 cells, nuclear area condensation; assay type: cell-based, human; conditions: C-terminal EGFP constructs, 24 hours
Procedure: Specifically, Ntera2 cells were transfected with C-terminal EGFP constructs of wild-type NARC1, each of the point-mutant NARC1s, and caspase 9. At 24 hours, nuclear area condensation was assessed for the entire Ntera2 cell population and compared to nuclear area condensation for the transfected cell population.

[5] = test system: cerebellar granule neurons (CGNs); assay: Apoptosis after transient expression of NARC1-EGFP constructs in CGNs, Laser-Scanning Cytometry; assay type: cell-based, rat; conditions: EGFP construct transiently expressed in CGNs, percentage of GFP-positive cells undergoing apoptosis
Text: Cerebellar granule neurons (CGNs) were transfected with a NARC1-enhanced green fluorescent protein (EGFP) expression construct (with the EGFP sequences located at the carboxy terminus of the fusion protein). Unless otherwise indicated, the construct utilized in the following experiments contained 2073 base pairs of the rat NARC1 transcript set forth in FIG. 5. Specifically, this corresponds to nucleotides 205-2277 and amino acid residues 56-746 of SEQ ID NO:4 and SEQ ID NO:3, respectively. The polypeptide sequence encoded by the NARC1 insert utilized herein has been set forth as SEQ ID NO:9 herein. The nucleotide sequence of this insert has been set forth as SEQ ID NO:10.
To investigate NARC1-mediated neuronal cell death, transient expression of the EGFP clones was carried out in cerebellar granule neurons (CGNs). These studies are set forth in detail as follows.

SY5Y cells = assay: NARC1 overexpression in SY5Y cells, nuclear condensation by Hoechst assay; assay type: cell-based, human
Procedure: Wild-type and mutant NARC1 were overexpressed in SY5Y cells (a human neuroblastoma cell line). Nuclear condensation was assessed by Hoechst assay.

Row | Molecule | Rescue of cell death in NARC1 transfectants (NARC1 transfectants; 24-hour exposure) | Autoprocessing Activity (NARC1 [4]) | Sensitivity of cells to expression (nuclear area condensation) (Ntera2 cells) | Resulting Cell Death Activity [5] | further results
1 | Aminoethyl-benzene sulfonyl fluoride [AEBSF] | dose-dependent rescue of cell death |  |  |  | Toxicity (NARC1 transfectants; 48-hour exposure): appeared toxic; Rescue of Caspase 9-induced cell death (Caspase 9 transfection): substantial rescue
2 | Aprotinin | some suggestion of rescue |  |  |  | Rescue of cell death in NARC1 transfectants (NARC1 transfectants; 48-hour exposure): increased effectiveness
3 | N-Tosyl-lysine-chloromethylketone [TLCK] | some suggestion of rescue |  |  |  | Rescue of cell death in NARC1 transfectants (NARC1 transfectants; 48-hour exposure): increased effectiveness
4 | variant of α1-antitrypsin: α1-antitrypsin variant with replacement of the reactive-site MET residue by ARG; protein-based furin inhibitor |  |  |  |  | Inhibition of in vitro conversion of proalbumin (furin [1]): inhibit the in vitro conversion of proalbumin
5 | α1-PDX: α1-antitrypsin variant in which reactive center ALA-ILE-PRO-MET is replaced by ARG-ILE-PRO-ARG |  |  |  |  | Inhibition of cleavage of viral envelope glycoproteins, including HIV gp160 (furin [2]): inhibit the cleavage of viral envelope glycoproteins
6 | B1 |  | normal autoprocessing | some sensitivity | moderately pro-apoptotic | Autoprocessing (NARC1 [3]): underwent autoprocessing; Intermolecular cleavage of co-expressed S385A mutant (NARC1 [4]; COS-7 cells co-transfected with wild-type and S385A NARC1 carrying different tags, anti-myc then anti-EGFP Western): absence of intermolecular cleavage; Resulting Cell Death Activity ([5]; listed as NARC1-EGFP): increase in apoptosis; Promotion of cell death (nuclear condensation) (SY5Y cells): does not promote cell death
7 | B2 |  | eliminate NARC1 autoprocessing; also recorded: Absence of processing | equally sensitive | somewhat reduce the pro-apoptotic effect; also recorded: Reduced activity | Autoprocessing Activity (NARC1 [4]; listed as double mutant): absence of autoprocessing; Resulting Cell Death Activity ([5]; listed as double mutant): reduced, but still substantial, pro-apoptotic effect
8 | B3 |  | absence of autoprocessing; also recorded: eliminate NARC1 autoprocessing; also recorded: Absence of processing | equally sensitive | reduced, but still substantial, pro-apoptotic effect; also recorded: somewhat reduce the pro-apoptotic effect; also recorded: Reduced activity | 
